Laboratory results taken from the supplement of paper PMC10126150.
± gives the standard deviation of the averaged measurements.

Tested on: ATP
Test: switch fluorescence ratio, 500 uM ATP over buffer (Cy3 cluster intensity, sum of 5 cycles each) (fold (ratio)); higher = stronger signal-on switching upon ATP binding; sequences stand for … in TCGTCGGCAGCGTCAGATGTGTATAAGAGACAGTTTTTTTTTTTTTTTTTTTTTTTTT…TC
Details: aptamer strand: ATP DNA aptamer (quencher-CACCTGGGGGAGTATTGCGGAGGAAGG + anchor), 100 nM annealed; ATP concentration: 500 uM
In short: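 Values give the fluorescence ratio for each switch-domain sequence, averaged from per-cluster ratios of summed target-cycle to summed buffer-cycle Cy3 intensity. The Cy3-labelled switching-strand clusters sat on a modified Illumina MiSeq flow-cell, were annealed to 100 nM quencher-labelled ATP aptamer, and were imaged in selection buffer, then after 15 min with 500 uM ATP at 22 °C. Five cycles ran with NaOH stripping and re-annealing between them, and clusters outside 100-1000 RFU were excluded.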
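Note: ATP exposure 15 min at 22 °C before imaging.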

| Sequence | switch fluorescence ratio |
| --- | --- |
| AAATCGGGGG | 1.05 ± 0.084 |
| GGACCCGGTT | 1.04 ± 0.029 |
| CCATGGCTGG | 1 ± 0.016 |
| GCTGATATCC | 1.01 ± 0.048 |
| CCGTGTAGGG | 1.01 ± 0.034 |
| AAAACTCTGT | 1.04 ± 0.015 |
| GGGGGGCGGC | 1.01 ± 0.046 |
| GGGGTGCTAT | 1.01 ± 0.043 |
| GGGTTGATAG | 1.01 ± 0.021 |
| AGGGACGCGA | 1.26 ± 0.037 |
| ATGAATTCTG | 1.059 ± 0.0049 |
| TGGGTATTAT | 0.9997 ± 0.0052 |
| ATGTGTAGAG | 0.995 ± 0.027 |
| GCTTTAGTGG | 0.963 ± 0.012 |
| TCGGGGATCT | 1.033 ± 0.0073 |
| AGGCAATGTT | 1.05 ± 0.013 |
| TAATCGGTG | 0.9805 ± 0.0024 |
| AAAGGGTATA | 0.978 ± 0.064 |
| GTGAGCCGGT | 0.983 ± 0.013 |
| ATGCGTATTT | 0.975 ± 0.039 |
| TCAGAGGCGG | 1 ± 0.011 |
| TATGTGATGG | 0.9874 ± 0.0053 |
| GAATTTTTTG | 0.988 ± 0.012 |
| GGATAGGGTA | 0.974 ± 0.043 |
| TTTAGGTGTA | 0.985 ± 0.02 |

| Sequence | switch fluorescence ratio |
| --- | --- |
| TTGGGGTTAG | 0.988 ± 0.017 |
| TATATATTGC | 1.02 ± 0.03 |
| ACTGGGGTCT | 1.01 ± 0.026 |
| TAGGGGTCAA | 0.99815 ± 0.0002 |
| TATGCATATT | 1.04 ± 0.032 |
| TGTAAGGGTG | 0.974 ± 0.065 |
| CTGGATTGAG | 0.956 ± 0.027 |
| AATAACACGT | 1 ± 0.026 |
| TATAACGCGC | 1.11 ± 0.061 |
| GCGGGGTGTT | 1.03 ± 0.013 |
| GAGGTGTAGA | 1.05 ± 0.022 |
| TTGTTAGGCT | 1.03 ± 0.041 |
| TGGGTTCGTA | 0.994 ± 0.031 |
| ATTGCGGCTA | 1.03 ± 0.033 |
| TTTCCCATTT | 1 ± 0.064 |
| GCTTAGTGGG | 0.954 ± 0.013 |
| TAGAAGCCGG | 0.98897 ± 0.00029 |
| GACTGGGTG | 1.04 ± 0.014 |
| TAGGGATTTT | 0.986 ± 0.018 |
| GGGAATGGAT | 1.01 ± 0.029 |
| CCCTGGGTCT | 1.028 ± 0.0089 |
| TCACATTTTC | 1.09 ± 0.14 |
| GATTTAGGCA | 0.986 ± 0.015 |
| TATTGTGAAT | 1 ± 0.014 |
| CTCAGGTATC | 1.11 ± 0.012 |

| Sequence | switch fluorescence ratio |
| --- | --- |
| GAGATAAAAG | 1.01 ± 0.03 |
| TATAGGGACA | 1.2 ± 0.03 |
| GGGGTGAGGG | 0.971 ± 0.032 |
| GGTAGGTTGC | 1.03 ± 0.013 |
| ATTTAAGTGT | 1 ± 0.021 |
| TGGAAGGTTG | 0.9808 ± 0.0066 |
| CGAAAATGTA | 0.9772 ± 0.0089 |
| ATAAAAGTCC | 0.979 ± 0.017 |
| TGGGTGATAA | 1.04 ± 0.048 |
| TCTGTCCAGC | 0.9775 ± 0.0046 |
| AAGTCGGATA | 1 ± 0.028 |
| GCTGGGCACT | 1.01 ± 0.035 |
| AGGTAGGGGT | 1.01 ± 0.02 |
| ATTGGGAGGA | 1 ± 0.014 |
| TGGGAATAGG | 0.993 ± 0.019 |
| TAGTTGGGGC | 1.01 ± 0.026 |
| CGTATTTCAG | 0.983 ± 0.011 |
| GAAAAAGGTC | 1.031 ± 0.008 |
| TCGGGGGTAA | 1.01 ± 0.033 |
| TTTTAACATT | 1.06 ± 0.081 |
| CGGTGTTTGG | 0.972 ± 0.015 |
| GGGTAGCTAT | 0.9739 ± 0.0049 |
| GCGGGGTGGG | 0.9835 ± 0.0051 |
| TCTAGTCCGA | 1.003 ± 0.009 |
| GTTAGGTTTT | 1 ± 0.017 |

| Sequence | switch fluorescence ratio |
| --- | --- |
| TGGGGGGACG | 1.03 ± 0.086 |
| TAAAAGGAAT | 0.993 ± 0.018 |
| AAAAATTTTA | 0.993 ± 0.026 |
| CCATTGTAGT | 0.99 ± 0.013 |
| ATTGTATTGT | 0.987 ± 0.03 |
| TGCATTCGTT | 1.008 ± 0.009 |
| ATGTTTAGGG | 1.01 ± 0.042 |
| AGCCACGCGT | 1.01 ± 0.012 |
| CTGGACAGTG | 0.956 ± 0.013 |
| CTTGTAACCT | 1.8 ± 0.061 |
| GATTTGCAGA | 1 ± 0.024 |
| AGAGGTTGGG | 0.98 ± 0.04 |
| GGGGGGAGAG | 0.989 ± 0.045 |
| AAGTTTATCT | 0.989 ± 0.02 |
| GGGGGGACAC | 1.031 ± 0.0019 |
| CAATTCGATA | 1.02 ± 0.025 |
| GAGGAATGGC | 0.9828 ± 0.0022 |
| GTGGCAGGTA | 1 ± 0.012 |
| GTGCTTAATG | 0.975 ± 0.011 |
| TCTTATTGCT | 0.96 ± 0.045 |
| CGTGATTTGA | 0.986 ± 0.014 |
| TGTGAAAGTG | 0.982 ± 0.041 |
| CAACCGTGAG | 1.02 ± 0.017 |
| TGTTATAGAT | 0.987 ± 0.025 |
| GGGGCCACTG | 1.02 ± 0.023 |

| Sequence | switch fluorescence ratio |
| --- | --- |
| GAGGAAATGG | 1.024 ± 0.0046 |
| TTTATGCTTG | 0.974 ± 0.044 |
| TTTGATCTT | 0.974 ± 0.03 |
| TATGGGGTGT | 1.01 ± 0.033 |
| TTTAGATGTG | 1 ± 0.014 |
| TGGGGAACG | 0.9595 ± 0.006 |
| CGTGCATCGA | 1.0092 ± 0.00045 |
| ACCTGATCGT | 1.087 ± 0.0051 |
| GATGTCAACG | 0.973 ± 0.032 |
| TTCCGTTCAG | 1.03 ± 0.0075 |
| TTGGAAACCA | 1.02 ± 0.015 |
| CTTTCTTTTT | 0.992 ± 0.018 |
| TTTTAGGACC | 1 ± 0.025 |
| ATGGGTTTGG | 1.01 ± 0.036 |
| TCAGAGCATC | 1.96 ± 1.1 |
| TTGTGGCGCC | 0.958 ± 0.021 |
| TCTAAGTGAG | 1.02 ± 0.016 |
| TTGTAATAGT | 1.026 ± 0.00026 |
| AGAGTGACGA | 1.008 ± 0.0061 |
| TTGTTGTGAC | 0.994 ± 0.028 |
| GGGGTACGTA | 1 ± 0.08 |
| TTTCATACCT | 1.23 ± 0.14 |
| GTTAGTCGGT | 0.983 ± 0.032 |
| TTGGGTGGTA | 0.988 ± 0.028 |
| AGGCACGTCG | 1.021 ± 0.009 |

| Sequence | switch fluorescence ratio |
| --- | --- |
| TGTTGAAATC | 1.01 ± 0.076 |
| TCGGGGTTGG | 0.978 ± 0.029 |
| ATGTTGTGTT | 0.9626 ± 0.0029 |
| GCGGCTATGG | 1.01 ± 0.019 |
| GTGGTAGGGG | 0.995 ± 0.025 |
| GATGAGTCTG | 0.98 ± 0.044 |
| AAGGAGCAGT | 0.985 ± 0.13 |
| GGGCTTGGCG | 1.0275 ± 0.00013 |
| TGTAGGAGGG | 0.993 ± 0.01 |
| TTGGCGTTCG | 1.01 ± 0.025 |
| TACAGGCGCT | 0.994 ± 0.015 |
| GGTACTGGAC | 1.087 ± 0.0021 |
| GACTTAGAAT | 1 ± 0.0026 |
| ATTACATTTT | 1.03 ± 0.031 |
| TGGAGATTAG | 1.01 ± 0.054 |
| TAATAAAATG | 0.99 ± 0.015 |
| AAGAGGAAGC | 0.984 ± 0.049 |
| TGAGGCGGGT | 1.05 ± 0.016 |
| GAGCTATTCG | 1.01 ± 0.047 |
| TATTTGGATC | 0.991 ± 0.035 |
| GCTGGGGTTG | 0.9839 ± 0.003 |
| CGAAAGAAAT | 1.02 ± 0.031 |
| TCCTTCCGGG | 2.16 ± 0.19 |
| AGAACGGGGC | 1.02 ± 0.023 |
| CAATTATTTT | 1.02 ± 0.027 |

| Sequence | switch fluorescence ratio |
| --- | --- |
| AGAATCCTG | 0.995 ± 0.043 |
| TTCCCTAATC | 1.02 ± 0.067 |
| CTATGTAGTC | 1.01 ± 0.019 |
| TTACGTTGGG | 0.997 ± 0.035 |
| TTCAGCATTT | 1.1 ± 0.068 |
| AAGCTTACGG | 1.06 ± 0.056 |
| ACGAAAACGC | 1.36 ± 0.23 |
| TGAGGCAAGG | 1.69 ± 0.47 |
| ACGGGGGGAT | 1.04 ± 0.089 |
| CGAGGGGGTG | 1.02 ± 0.055 |
| ACGGGGAGTT | 1.05 ± 0.031 |
| AATTGGAGGG | 1 ± 0.029 |
| TTTAAACCGG | 1.02 ± 0.016 |
| TAAGGAGGGG | 0.981 ± 0.024 |
| ATGATTCCTT | 1 ± 0.03 |
| TTTTGGGTG | 1.04 ± 0.04 |
| TTTTGAGCGA | 1.07 ± 0.051 |
| AAATGCCAGG | 1.08 ± 0.032 |
| AAAAAGGGGG | 1.02 ± 0.045 |
| GTAGGAGGGA | 1.05 ± 0.1 |
| TTGGGCAAAA | 0.985 ± 0.065 |
| CAGGGGTTGT | 1.21 ± 0.31 |
| AGCAAACGGG | 1.26 ± 0.015 |
| TTTTATGTAT | 1.06 ± 0.048 |
| GGTGTAGGAC | 1.03 ± 0.012 |

| Sequence | switch fluorescence ratio |
| --- | --- |
| GAGTAATGCG | 0.943 ± 0.066 |
| TAGAATCAGG | 1.055 ± 0.0011 |
| AATCGCGGCC | 1.032 ± 0.0085 |
| ATACTCCGGA | 1.16 ± 0.055 |
| CGTAGTTTCG | 1.013 ± 0.008 |
| TTGGGGAAAT | 1.31 ± 0.68 |
| TGGGTGCCGA | 0.989 ± 0.011 |
| GGGTTCCAGG | 1.26 ± 0.098 |
| ATTCATTTAG | 0.996 ± 0.013 |
| TGAGTAATTT | 1.01 ± 0.037 |
| AAGCAATTAT | 1.53 ± 0.11 |
| TTGAGATTTG | 1.01 ± 0.013 |
| GGGAATTACC | 0.986 ± 0.024 |
| GCACGTGACC | 1.47 ± 0.048 |
| GGCAGTGTGC | 0.99 ± 0.022 |
| TTTTGCCTCC | 1.09 ± 0.035 |
| GTTTTTTGAG | 1 ± 0.046 |
| TCGTTGCGT | 1.01 ± 0.0017 |
| ATTTAAGCTC | 0.987 ± 0.024 |
| TAATAGACGG | 1 ± 0.026 |
| CGCGCCCCTT | 1.13 ± 0.015 |
| TTCAATGGCT | 0.983 ± 0.046 |
| TTTCGTTTAC | 1.272 ± 0.0071 |
| GCAATGAACC | 1.84 ± 0.078 |
| TTTCGCAGAA | 1.1 ± 0.1 |
